Assay results from patent US20130216544A1 (GEMOAB MONOCLONALS, published 2013).
Residue numbers refer to the chain shown, from its start.

T1: bacterially produced recombinant murine La protein (rmLa) (murine, UniProt P32067 1-415)
T1 construct: also called prokaryote-produced murine La protein
T1 sequence (looked up): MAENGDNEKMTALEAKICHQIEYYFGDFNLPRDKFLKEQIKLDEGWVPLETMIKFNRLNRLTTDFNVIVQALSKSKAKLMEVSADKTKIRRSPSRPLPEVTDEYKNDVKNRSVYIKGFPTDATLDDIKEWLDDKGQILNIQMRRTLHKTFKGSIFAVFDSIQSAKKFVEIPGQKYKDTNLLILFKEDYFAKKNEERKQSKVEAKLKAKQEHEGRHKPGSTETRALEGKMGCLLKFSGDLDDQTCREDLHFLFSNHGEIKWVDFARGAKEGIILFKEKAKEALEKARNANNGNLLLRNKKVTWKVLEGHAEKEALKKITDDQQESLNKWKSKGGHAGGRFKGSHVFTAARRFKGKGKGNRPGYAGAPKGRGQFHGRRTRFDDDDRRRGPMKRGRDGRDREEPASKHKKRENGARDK

T2: recombinant human La protein (rhLa), SEQ ID No. 1 with His tag (human, UniProt P05455 1-408)
T2 construct: Also used to decorate the surface of 3T3 and HEK 293T PSCA cells; also called rhLa protein; His 6hLa protein; not shown: His tag
T2 sequence: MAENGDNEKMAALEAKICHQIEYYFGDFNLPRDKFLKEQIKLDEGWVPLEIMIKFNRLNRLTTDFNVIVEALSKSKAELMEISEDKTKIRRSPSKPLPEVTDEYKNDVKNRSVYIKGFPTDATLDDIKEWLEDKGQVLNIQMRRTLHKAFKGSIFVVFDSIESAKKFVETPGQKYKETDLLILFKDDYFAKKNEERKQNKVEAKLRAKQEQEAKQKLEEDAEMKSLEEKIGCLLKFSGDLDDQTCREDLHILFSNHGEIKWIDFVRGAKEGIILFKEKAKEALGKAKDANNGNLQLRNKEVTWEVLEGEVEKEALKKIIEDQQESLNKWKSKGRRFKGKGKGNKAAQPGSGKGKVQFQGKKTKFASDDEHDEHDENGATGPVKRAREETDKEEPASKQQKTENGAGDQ

T3: eukaryotic murine La protein (mLa) (murine, UniProt P32067 1-415)
T3 construct: In total extracts or fixed cells; also called endogenous mLa protein; eukaryote-produced murine La protein
T3 sequence (looked up): T1 sequence (looked up)

B1: anti-La monoclonal antibody 312B (antibody, IgG1, V domains shown)
VH: QVKLQESGAELMKPGSSVKFSCKAAGYTFTDYWIEWLKQRPGHGLEWIGEILPGSVSIKYNEKFKGKATFTADTSSNTAYMQLSSLTSEDSAVYYCARSRSIYDGYFYYWGQGTTLTVSS
VL: DIVMTQSTASLSASVGETVTITCRASENIYTYLAWYQQKQGKSPQLLVYNAKTLAEGVPSRFSGSGSGTQFSLRINSLQPEDFGSYYCQHHYGTPYTFGGGTKLEIK
B2: anti-La monoclonal antibody 22A (antibody, IgG1, V domains shown)
VH: QVKLEESGPELVKPGAPVKISCKTSGYTFTNYYIYWVKQRPGQGLEWIGYIYPGNGGTAYNQKFKDKATLTADNPSNTAYMQLSSLTSEDSAVYLCARRGALGYYFDYWGQGTTLTVSS
VL: QIVLTQSPAIMSASPGEKVTMTCSASSSVSYMYWYQQKSGTSPKRWIYDTSKLASGVPARFSGSGSGTSYSLTISSMEAEDAATYYCQQWSSNPQFGTGTKLEVKR
B3: anti-La monoclonal antibody 2F9 (antibody, IgG1, V domains shown)
VH: EVQLQESGPGILQPSQTLSLTCSFSGFSLSTSGMGVSWIRQPSGKGLEWLAHIYWDDDKGYNPSLKSRLTISKDTSRNQVFLKITSVDTADTATYYCARGDVEFDYWGQGTTLTVSS
VL: DIVLTQSTASLAVSLGQRATISCRASESVDSYGNSFMHWYQQKPGQPPKLLIYRASNLESGIPARFSGSGSRTDFTLTINPVEADDVATYYCQQSNEDPPTFGSGTKLEIK
B4: anti-La monoclonal antibody 27E (antibody, IgG2b, V domains shown)
VH: VQLQESGAELARPGASVKLSCKASGYSFRSYGINWVKQRTGQGLEWIGEIYPGSGTTFYNEKFRGKATLTADKSSSTAYMQLKSLTSEDSAVYFCARHGGYPFYFDYWGQGTTLTVSS
VL: DIVMTQSPAIMSASPGEKVTISCSASSSVSYMYWYQQKPGSSPKPWIYRTSNLASGVPARFSGSGSGTSYSLTISSMEAEDAATYYCQQYHSYPRTFGGGTKLEIKR
B5: anti-La monoclonal antibody 32A (antibody, IgG1, V domains shown)
VH: VQLQQSGAELARPGASVKLSCKASGYTFTTYGLTWVKQRTGQGLEWIGEIFPGSGTTFYNEKFNDKATLTADKSSSTAYMQLTSLTSEDSAVYFCARYSNYPYYFDYWGQGTTLTVSS
VL: B4 VL with D1Q, M4L, A9T, A59D
B6: anti-La monoclonal antibody 5B9 (antibody, IgG2a, V domains shown)
VH: VQLEESGAELVKPGASVKLSCKASGYAFTHYYIYWIKQRPGQGLEWIGGVNPSNGGTHFNEKFKSKATLTVDKSSSTAYMQLSSLTSEDSAVYYCTRSEYDYGLGFAYWGQGTLVTVSA
VL: IVLTQTTSSLAVSAGEKVTMSCKSSQSLLNSRTPKNYLAWYQQKPGQSPKLLIYWASTRKSGVPDRFTGSGSGTDFTLTISSVQAEDLAVYYCKQSYNLLTFGAGTKLELKR
notes: also called anti-La-5B9
B7: anti-La monoclonal antibody 24BG7 (antibody, IgG1, V domains shown)
VH: QVQLQQSGAELARPGASVKLSCKASGYSLTNYGISWVKQRTGQGLEWIGEIYRGSGNSYYNEKFKGKASLTADKSSSTAYMQLSSLTSEDSAVYFCARGGLSFAYWGQGTLVTVSA
VL: QIVLTQSPAIMSASPGEKVTMTCSASSSVTYMHWYQQKSGTSPKRWIYDTSKLASGVPARFSGSGSGTSYSLTISTMEAEDAATYYCQQWISNPPTFGGGTKLEIKR
B8: anti-La monoclonal antibody 7B6 (antibody, V domains shown)
VH: VKLQESGGGLVQPGRPMKLSCVASGFTFSDFWMNWVRQSPEKGLEWVAQIRNKPNNYETYYSDSLKGRFTISRDDSKSSVYLQMNNLRPEDMGIYYCTLGNSWFAYWGQGTLVTVS
VL: DIVITQSPSSLAVSAGEKVTMSCRSSQSLLDSRTRKNYLAWYQQKPGQSPKLLIYWASTRESGVPDRFTGSGSGTDFTLTISNVQAEDLAVYYCKQSYNLPTFGGGTKLEI
notes: Used as hybridoma supernatant or mAb; also called mAk 7B6; anti-La 7B6

The binders below were run against T1, bacterially produced recombinant murine … (assay: immunoblot, bacterially produced rmLa).

| Binder | binding result |
| --- | --- |
| B1 | binds |
| B2 | no binding |
| B3 | binds |
| B4 | binds |
| B5 | no binding |

The binders below were run against T2, recombinant human La protein (rhLa), … (assay: method and form of the antigen not stated).

| Binder | Kd [nM] |
| --- | --- |
| B1 | ~0.1 |
| B6 | ~0.1 |
| B7 | ~0.1 |
| B8 | ~0.1 |
| B2 | ~0.1 |
| B4 | ~0.1 |
| B5 | ~0.1 |

The binders below were run against T3, eukaryotic murine La protein (mLa) (assay: immunoblot, 3T3 total extract).

| Binder | binding result |
| --- | --- |
| B1 | binds |
| B2 | no binding |
| B4 | binds |
| B5 | no binding |
